# Results as given in article PMC3834821.
# Target: T1, GST-DAZAP1 (UniProt Q9JII5)
# T1 sequence: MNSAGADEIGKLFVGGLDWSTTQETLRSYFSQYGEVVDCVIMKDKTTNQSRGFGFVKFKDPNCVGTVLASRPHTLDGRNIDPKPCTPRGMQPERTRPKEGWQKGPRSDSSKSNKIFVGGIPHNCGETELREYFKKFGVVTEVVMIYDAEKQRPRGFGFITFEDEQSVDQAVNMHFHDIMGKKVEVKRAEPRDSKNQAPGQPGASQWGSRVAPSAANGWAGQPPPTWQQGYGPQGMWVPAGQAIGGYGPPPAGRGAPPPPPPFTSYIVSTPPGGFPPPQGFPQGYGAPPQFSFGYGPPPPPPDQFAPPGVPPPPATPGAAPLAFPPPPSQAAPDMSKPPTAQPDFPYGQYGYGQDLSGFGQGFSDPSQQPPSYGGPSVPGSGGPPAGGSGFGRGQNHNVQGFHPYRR
# Assay: EMSA
# Details: 20 mM HEPES pH 7.6, 3 mM MgCl2, 40 mM KCl, 2 mM DTT, 5% glycerol, 5 mg/ml heparin; room temperature, 15 min; native 5% PAGE in 0.25x TBE; RNA 0.5-3.0 nM for Kd
row,Sequence,Kd [µM]
1,AAGGUGAUAUUUAUGACACGUAAACAUUUAUG [Pot1a-dE],0.301
2,ACCUCCUAAUGGUAAGUACCCUACUUGUUCUUCAUUUCUU [Crem-Wt],0.0189
3,ACCUCCUAAUUUGUUCUUCAUUUCUU [Crem-dA],0.169
4,AAGGUGAUAUUUAGUAUAUAGUGACACGUAAACAUUUAUG [Pot1a-Wt],0.00782
5,AUCAUAGAGGUAGCAUUUUAGUUUAUUCUGUGAACUUCAAAAUUGACU [Crisp2-WtC],0.0151
6,AUCAUAGAAUUUUAGUUUAUUCUGUGAACUUCAAAAUUGACU [Crisp2-dC],0.0703
7,AAGGUGAUAUUUAGUAUAUAGUGACAAUUUAUG [Pot1a-dA],0.00704
8,AAGUGUGAUAUAAUUCACUGGUAGUUUAUCAUAGAGGU [Crisp2-WtB],0.0337
9,AAGUGUGAUAUAAUUCACUAUAGAGGU [Crisp2-dB],0.0818
